Publication PMC3154933, “The Nucleotide Exchange Factor Ric-8A Is a Chaperone for the Conformationally Dynamic Nucleotide-Free State of Gαi1” (PLoS ONE, 2011)
No end group written: not given here.

Biological target: T1, Ric-8AΔC492 (rat Ric-8A residues 1–492) (rat, UniProt Q80ZG1 1-492)
T1 construct: Ric-8A, rat, residues 1-492; The His tag is used to adsorb it to IMAC resin in the NMR experiment; also called ΔC492Ric-8A; source: E. coli BL21 (DE3)-RIPL, purified (nickel NTA-agarose, UNO-Q); not shown: His6, N-terminal, kept
T1 sequence (looked up): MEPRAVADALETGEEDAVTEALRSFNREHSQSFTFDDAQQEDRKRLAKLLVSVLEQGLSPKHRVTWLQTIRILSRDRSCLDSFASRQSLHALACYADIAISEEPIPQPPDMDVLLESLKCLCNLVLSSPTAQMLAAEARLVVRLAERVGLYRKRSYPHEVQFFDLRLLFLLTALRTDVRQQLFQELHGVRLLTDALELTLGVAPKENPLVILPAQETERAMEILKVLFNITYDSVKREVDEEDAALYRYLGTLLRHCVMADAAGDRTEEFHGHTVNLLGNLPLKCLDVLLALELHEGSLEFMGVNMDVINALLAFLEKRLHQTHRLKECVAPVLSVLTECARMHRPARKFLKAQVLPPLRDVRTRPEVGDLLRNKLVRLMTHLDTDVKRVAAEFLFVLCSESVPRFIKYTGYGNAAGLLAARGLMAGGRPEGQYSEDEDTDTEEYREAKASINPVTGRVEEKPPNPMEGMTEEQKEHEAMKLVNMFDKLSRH
Experiment: ITC; 250 µM peptide injected into 25 µM Ric-8A in the cell, 25°C, single binding site model
Conditions: both partners purified

Kd: 12 µM
dH: -5.3 kcal/mol
stoichiometry N: 0.9
B1: Gαi1C18, amidated peptide of the 18 C-terminal residues of rat Gαi1 (peptide)
peptide: DAVTDVIIKNNLKDCGLF-NH2
notes: Gαi1, rat, the C-terminal 18 residues; source: synthetic peptide (FMOC chemistry, HPLC purified)
